Assay results: the supplement of paper PMC12636428

Tested on: Saccharomyces cerevisiae
Experiment: transcriptional activation domain activity (GFP:mCherry ratio, weighted mean of sorted bins, harmonized to initial dataset scale) (arbitrary fluorescence ratio units); higher = stronger transcriptional activation
Conditions: beta-estradiol 1 µM; induction time 4 h
Procedure, shortened: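 In diploid yeast carrying a GFP reporter, barcoded protein tiles fused to an estradiol-inducible synthetic transcription factor were integrated at the URA3 locus. Cultures diluted 1:5 into SC with 1 uM beta-estradiol were kept at 30 °C for 4 hours, then sorted by GFP:mCherry ratio into 8 bins before barcode sequencing. Tiles with under 50 reads were excluded. The activation activity reported here is the read-weighted mean of bin median fluorescence, averaged across barcodes and linearly rescaled to the initial dataset.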

Sequence	transcriptional activation domain activity
HGSTLTTIMIQVSEVMILPSFFQELLDTIRTRCPRVVNFMIWFQVWNWMMVPV	73300
LFSFSVAYRYFYFFWYVVLERQIRIFRWIAVSIFVWTLVIGFSLYQGLTKQYI	31800
FLSCMPFVFLTVVCSTLCMYFAKVFPTNNPVFLPLLLLHTFIHILSVVSFGLL	33300
DALGLRRPSLYYKALVAGQCIFFMALCYTYRMIPYLDQKKIKTLKKVFFRIII	68800
SPLPLLICSLPSLVNPLPLLPSTLALLPPPFILYYVLQYHVILFVFLVVFCFS	33200
RYLRHIKNIVFVLVLLNYWSKLYNTVLIGGPVRAVHDFKTYLIRIVFRQLRRL	47300
SSSGTPQAKSSSPSSTAASTKAPTSSATKPTSTGSCRKKRSNSTQRRSRTSRM	45400
SHLEQMLWRICSLVIICAPMYLALSGKVFLIFSNSIGQLYILLCIRGPFLLYI	69600
MKFLPFRFADLQANNFILFYFLYLMLACYLYPICIYTGKLFVIFPFIFLFFVP	55000
GMPESTVEDVGGPSTATVEEGGPREVEATVQGVEEASTSAPVKRGRGRPRKTS	30800
LLVLYLVLSYLKHSHMEGLGEFMIKFFEECNVDPFSKVFRGGHYKESVFEGVY	76100
LYSRYCLLLICIFFVTLQFTTVRFTVRSFYFNTLSFFYLSFWCPQIYRNIMRN	53600
IVRIVFFPTIFSFFNFFAVWFYQRSWILLPFPELYECFALVAMFYLLVVYVTP	46200
QDALVELFGHMENFFRRLEKHIEVRPTTAMTDIIVKIMVEVLSILGIVTKEIE	41200
ALRDSKSSDPKVKKEGEDFLAQLRIGKSYLHGLDAEGRPMCIVRARLHRAGEQ	48900
EREREKREEREREAARLRREAEEREREEHEGRKREKREEPEEREAEEREREVE	33200
TMWHCMDLLFCVAPGRLIRETASGLYVHHCFECGTKLEPQPLHSLTITAYHLA	52300
CLTQGLGICRDAENPEVNPDTATGEEGDVRTRCFQRDSLKDQVIVLAFLIITT	28900
IIFVELYSYLLYYIYLNIRIFLRFSSSIVLDFELFCFPPSHFPFNFFVCILFT	74000
RSKHWEMLSVLHAGMVLLTAWFFFHCIDLIIHLERARVAYGYIVVPALFDILR	46500
LRPHRYFHTNQIYYAAILIDLILRFTWLSRLSVRINWINDLESGVFVLMFLEV	62500

Sequence	transcriptional activation domain activity
NRSDEPELDVKELNRHVNADNLSDLQLDDSQKMGYVYKCLGAGIHLLRLSLRL	39000
YNIRAKGFNIFNITISVGLIFNQYVNPIALAVLTWKYYVVYCAWLLCEVLFLY	81900
YFILFPFHHFLSPSLHSAPAFWCTLLLFTYVLVFFFGTLYHMVMFCFVCLFIC	94500
GFMLIFWNLAGVPLSYCHCSIFVANHLDTITSWGGDFRLPLLVLLFTSYLFMY	42000
MEQSMGFMIHVYITVIPLGDVYEVLVFLILRSILPLPPGFLCLSLLLHDLFFI	62400
MHTLLTILQTLHILVIFNTIVYPVCLFEICCFAWYFIPFAFRFLCLCFFFLFL	55000
TFQPEHTCFPFFLFFFFLFFPPLSFFLPLFFPYSFSVAPLLSAPTVTTHTFTF	52800
DDEGSTRDRKSHKRRSRDKDDSDEEEDRKRRKRRKERERSKDKEERRSVLTGK	28900
SSWIKWVFLFARYFPLLAGLCGRIIDSIVLYKHPIPIPLNALRIWYICQVLII	59300
LSSSPSAQIATNTNVVFILGSDDKRVKEVGDALKTKLGVKGGGKGSKWSGKFG	33200
SGNPPNVVMPPIVCPYSPIIIISYVVTYFFLHHFGGLIGWLQFLSLLLQSLMV	51000
PVNYLRLTNIGVCDMDDGYDLACHLMLNEPDADSCALLRVLIHRLKECTNLNI	47100
VNKSGSTYGEELSPKLDSSLVNDTTSLLLPQQPVFVSENVGSEFSSLNEFLSM	108000
LFHSYFSFLLLFFFFFFFYFLPFFFFLPSLLPHFLLFSFYFPFISPFLSTSFS	58800
DGNAGQTAGNAGNGRQNGNGRQGGNGGAGQQGKPRPNGQKGQQGQRGQGAGAG	20500
SRAKVCGWADVFMVIAMHCLLGWSVTMTLYALRGGTRHIWDLEPLGVDNLIKA	35200
RLQRDGQAGAGRGEARGGRGPVAGGQGAQHAGPVRRHRRQRRAGHLHGRKQHQ	32800
WARNARKNKSTEEASAQEQRRGAQVIVIHPGSRFLRIGKASEVSPVTVLNVVA	55600
RPKVQPFWVIDLFVPYRPLLSFVSDLYFAYQAWTQLTGLTVTLFYFSIWKLAL	58500
TMSTVMVVGSDDKKVKEVGEALKSKLGVKGGGKGSRWSGKFTGVWKDSREGAL	27000
MSENTAVENVTATLEKTKLEAPVTNEAEVAHAASAAEGRRLYIGNLAYSTTEE	33100

Sequence	transcriptional activation domain activity
MKFVFVPFAVSPPKPFFLLLFLLLFFTSTFCAFSISPFSLFCSSLFYCSRFLL	52400
EKKVKTPKSPKKEKKKEEPAAAPAAAAEEPAKEEAAAPAEAAVAPTEEPAKVE	42200
QGTNHAYHEHILNTDMDLKILEDLCNISSLYEVPFGKHINHHDHNNAGNGCDG	83400
MLLMPRLCPVYLIHFCMIYALHLVAPHLSFPLISSGFLIIFTLHYTSTLLTCL	49400
KKSDEKDDTKPKKKKAKHDDADKESKKKLKKASKEKKSKSTKSKKDTAENAIA	42900
ADIICMIYLIVNYTLLVFVSEVPYHQRARICLRLFCSCNFVTNFYATSAIVYR	51100
MAEDSDPSADGGLPMPYSCYECRNRKLKCDRRKDGCSRCAQAGGKCHYPTSRK	48800
AFLCWVAPNNQVANFLGSGFGGMGFLNLSLDWSNISTNGSLFLTPWWTQVVMF	52500
MALFLSIFLLFFFLLYLSQITHFHGILFCFFLLCAPCLYIPDSCNPLIQPLFP	35300
PAPAPEAPKEEEAAAEPAAEPPKTEEAPAAEPVKEPEQAEPTPAADAPADAPA	18900
ELGLGSWWVFIVLGHTSVLLELAPRYSFALYFLPVFLLTVTVVSFFFAFVLYL	41100
SSSEDDGKAGEGSSSSSDSEKARGRKKAKKSKEKGKGKATEGNSSSSSSDDDS	21100
LVMWTVILCPVFSFPDRGHGSMLFFLFKLCLAMLLTYLLAMLWFHCVYCIVVF	32700
GDFESKCYLFEPSELRFPPHVFSLTNGRLYRRWYFLDLQSGMLFRFFYICDWR	32700
FFNILILQWRRIRCCKVVSTSLCLENTLGVAQLFVQFVLFTLIFILYMIYFPP	48300
GESDDEGGGGRKRKKAKVEPAPKVKVERKPAAPVQEGEKKKRGRPRKVAPLPA	24400
IQEEVKAKKKRKSRKGAKEEGEASPAESSESDGEQEKPKKKASRKKKRPKVEG	27600
RVVLRCLFLAYECIEEADVKSTLSYTIEVAFNLITSTCDYIGPVAMSHALRAG	53900
CEPLRKATRGLVTTVVNGNDVVPSLSIGVVRDFHSVALSFKEDTGGVLGEVRK	39100
